This sample holds only a part of the variants without activity.
B1: TPR 5TU (parent)
chain: GGAUCUUCUCGAUCUAACAAAAAAGACAAAUCUGCCACAAAGCUUGAGAGCAUCUUCGGAUGCAGAGGCGGCAGCCUUCGGUGGCGCGAUAGCGCCAACGUUCUCAACUAUGACACGCAAAACGCGUGCUCCGUUGAAUGGAGUUUAUCAUG

Variants of: B1
Experiment: polymerase ribozyme fitness, log enrichment relative to wild type (log ratio); higher = more active; in vitro selection for triplet polymerase activity
Procedure, shortened: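 Frozen incubation at −7 °C formed the core of a single, triplicate in vitro selection round applied to PCR-built, transcribed mutant libraries of each subunit of a heterodimeric triplet polymerase ribozyme. Extended constructs were gel-excised, captured with streptavidin beads and amplified by RT-PCR, and input and output libraries were Illumina-sequenced with a filter of ≥10 input reads and ≥1 read per output. Fitness is the logarithm of genotype enrichment relative to wild-type enrichment, with inverse-variance-weighted replicate averaging, and the logarithm is base 2.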

Variant | polymerase ribozyme fitness (log ratio)
G84U G88A | -4.15
G80C G81C C96A U134A | ≤ -4.2
U82G C95G | -1.65
G84U A91G | -2.81
U82G A89C A98G A142C | -1.56
G84A C116G A121U | 0.52
U82G C85G G92C C114A | ≤ -4.2
C85G U104A | -2.4
C85G U104C | -2.69
C85G A122G | -3.42
C85A C96A G128C | -4.03
G81A A120G U148C | -2.99
U82C U90G | ≤ -4.2
G81C G117C G143U | -4.1
C79A C93A | -4.12
G83A C132U | -0.931
G80A C105U | 0.692
G83A U101G U135C C149A | ≤ -4.2
G83U C95U C116U | -2.67
C85U A119C C131G G141C | -0.0963
G83U G128C | -3.55

Variant | polymerase ribozyme fitness (log ratio)
G83A G140C | -3.99
C85G A122G C123A | -2.57
C79U G100A A115C | -1.13
G80C A115U | ≤ -4.2
C85G U151C | -4.2
G81U C96U A107U U145C | -3.1
U82A C93U A110G | -4.09
C85G G141U | -0.649
C85G C99U G140U | ≤ -4.2
G83A G94A | -1.17
G83C C95U | -1.81
G83A C93U A121U | -2.08
G84A G143A | -1.65
G81A G92C C99U G124C G133U | ≤ -4.2
C85A G133C | -3.5
U82G A142C | -0.83
G80U G86U G100A | ≤ -4.2
G80A A97G | -1.88
C85A A115G | -2.38
U78G G86C U102G C108U A119U G140U | ≤ -4.2
C85A C87G G88C A97G U130G G141C | ≤ -4.2

Variant | polymerase ribozyme fitness (log ratio)
G80U A119C C123A | -1.18
U82G G88C C93U C95G | ≤ -4.2
G80A C85U C118A | -0.52
U82A C95U | -0.587
C85A U139C | -4.1
C85A C108U | -3.66
G80C G128C | -3.87
C85A G86U | -3.2
G81A A147U | 0.732
C85A G143A | -1.99
G80A A91G A122U | -2.08
G83U A91C | ≤ -4.2
G81A C87U U146G | -3.41
G83U G141C | -1.18
G84A A147G | -2.67
C79G C87U | -3.7
G83C U102G | -4.12
G83A C125U | -1.29
U82A G83A A98G U127C | -3.36
G80A C93G A97G A115C | -3.64
U82A C85G | -3.05

Variant | polymerase ribozyme fitness (log ratio)
G83U A91U A120U A138U | ≤ -4.2
G84U A122C | -2.13
C85G A98U G124U A147C | -2.53
G80A G92U A97G | -0.375
C85G C87U | -3.28
G84U C87G | -3.88
C85A G86U A110C C131A | ≤ -4.2
G83A A89G C116U | -1.69
G84A C116A | 0.83
C79G G81U C95U A107U C108U | ≤ -4.2
U82G A91U C114A A119U A121C G133C | ≤ -4.2
U82G G92C | -1.23
C85A G140C | -3.64
G83U C93G A121U | ≤ -4.2
U82C U101A | 0.112
G81A C95A C103A | -2.93
G84A A142U | -0.702
G83A C96U | -0.419
G80U C93G | -2.97
U82A C108U | -2.39

Reference: the RNAGym collection of RNA variant scans (doi:10.1073/pnas.2313332121)
